Here are results for 3 molecules from article PMC6824469.

Residue numbers refer to the chain shown, from its start.

This series deals with Prp43p (rPrp43p);Ntr1p (1-120) (Saccharomyces cerevisiae (budding …, UniProt P53131;Q06411 1-767;1-120, |)). Nature of the series: EMSA.
Chain of Prp43p (rPrp43p);Ntr1p (1-120) (Saccharomyces cerevisiae (P53131 whole entry, chain 1 of 2): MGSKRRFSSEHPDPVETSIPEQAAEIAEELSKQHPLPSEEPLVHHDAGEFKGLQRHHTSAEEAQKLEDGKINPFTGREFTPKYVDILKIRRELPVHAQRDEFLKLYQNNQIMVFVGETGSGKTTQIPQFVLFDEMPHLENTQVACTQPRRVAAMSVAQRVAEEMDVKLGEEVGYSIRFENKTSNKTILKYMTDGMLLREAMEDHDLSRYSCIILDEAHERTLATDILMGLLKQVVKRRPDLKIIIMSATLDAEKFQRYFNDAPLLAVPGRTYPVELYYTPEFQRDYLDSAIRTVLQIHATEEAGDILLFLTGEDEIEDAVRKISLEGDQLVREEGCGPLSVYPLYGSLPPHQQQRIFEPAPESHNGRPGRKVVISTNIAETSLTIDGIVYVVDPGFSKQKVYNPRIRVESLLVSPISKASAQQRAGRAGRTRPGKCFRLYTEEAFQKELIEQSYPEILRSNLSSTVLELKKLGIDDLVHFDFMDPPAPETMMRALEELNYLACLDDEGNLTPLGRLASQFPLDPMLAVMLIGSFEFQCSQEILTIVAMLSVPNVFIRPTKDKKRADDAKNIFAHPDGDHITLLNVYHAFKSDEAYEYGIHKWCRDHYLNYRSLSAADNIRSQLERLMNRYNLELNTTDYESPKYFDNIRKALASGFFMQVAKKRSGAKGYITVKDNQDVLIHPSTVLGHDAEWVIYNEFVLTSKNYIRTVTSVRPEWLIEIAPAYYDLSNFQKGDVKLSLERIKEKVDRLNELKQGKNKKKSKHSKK
Chain of Prp43p (rPrp43p);Ntr1p (1-120) (Saccharomyces cerevisiae (Q06411 1-120, chain 2 of 2): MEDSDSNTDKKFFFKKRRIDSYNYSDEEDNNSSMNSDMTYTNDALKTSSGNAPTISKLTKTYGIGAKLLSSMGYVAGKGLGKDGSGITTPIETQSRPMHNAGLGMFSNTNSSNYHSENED

B1: substrate-1 (RNA-1/Cy5 DNA) (DNA:RNA)
RNA: GGCACCAACACAAAACACAUCUACACUCAACAAU
DNA: GTAGATGTGTTTTGTGTTGGTGCC
On to B1, for which the binding result is on record as “binds”.

B2: substrate-4 (RNA-4/Cy5 DNA) (DNA:RNA)
DNA 1: GGCACCAACACAAAACACATCTACACUCAACAAUCACUUU
DNA 2: GTAGATGTGTTTTGTGTTGGTGCC
modifications: DNA at nt 17-24 of strand 1 (proximal end of duplex)
For B2, the binding result is listed as “binds”.

B3: substrate-5 (RNA-5/Cy5 DNA) (DNA:RNA)
RNA: B2 DNA 1 with T20U, T22U
DNA: GTAGATGTGTTTTGTGTTGGTGCC
modifications: DNA at nt 9-16 of strand 1 (middle of duplex)
With B3, the binding result is reported as “binds”.
